Measurements as given in publication PMC6460258.

Experiments:
[1] = target: GST-tagged Lcl (recombinant full length Lcl, 18 repeats) (Legionella pneumophila); experiment: SPR; Biacore X100; […] (100 nM) […]
[2] = target: His-tagged full length Lcl (Legionella collagen-like protein) with 18 repeats (Legionella pneumophila serogroup 1, strain LU1536); experiment: SEC; […], PBS, 0.5 ml/min; […]

| Substance | Kd [1] | stoichiometry N [2] |
| --- | --- | --- |
| His-tagged Lcl lacking the C-terminal domain (Lcl[change]) (domain or fragment) | 123 nM | – |
| His-tagged Lcl lacking the collagenous repeat domain (Lcl[change]) (domain or fragment) | 1040 nM | – |
| His-tagged full length Lcl (Legionella collagen-like protein) with 18 repeats (natural protein) | 28.7 nM | 3 |
